Substitutions are numbered along the chain they refer to.
T1: human GIP receptor (human) (UniProt P48546)
T1 sequence (looked up): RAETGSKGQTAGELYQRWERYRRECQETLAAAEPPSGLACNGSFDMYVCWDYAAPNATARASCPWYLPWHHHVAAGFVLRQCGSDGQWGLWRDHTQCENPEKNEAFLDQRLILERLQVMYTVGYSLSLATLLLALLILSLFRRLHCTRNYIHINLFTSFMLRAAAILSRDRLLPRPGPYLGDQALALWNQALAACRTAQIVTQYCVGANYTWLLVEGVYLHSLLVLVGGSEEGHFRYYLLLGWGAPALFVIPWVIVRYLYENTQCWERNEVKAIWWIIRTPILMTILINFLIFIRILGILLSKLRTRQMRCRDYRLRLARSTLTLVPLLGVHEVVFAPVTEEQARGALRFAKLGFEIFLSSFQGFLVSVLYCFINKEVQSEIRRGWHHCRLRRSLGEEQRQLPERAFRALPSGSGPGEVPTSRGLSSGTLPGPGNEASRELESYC

T2: human glucose-dependent insulinotropic polypeptide (GIP) receptor (human, UniProt P48546 22-466)
T2 sequence (looked up): T1 sequence (looked up)

T3: human GIP receptor (human, UniProt P48546 22-466)
T3 sequence (looked up): T1 sequence (looked up)

B1: Example 435 (peptide)
peptide: YXEGTXTSDXXIXLDXKAQXXFIXXLIEGGPSSGAPPPSK
modifications: Y-Aib-EGT-αMeF(2F)-TSD-4Pal-Aib-I-αMeL-LD-Orn-K((2-[2-(2-Amino-ethoxy)-ethoxy]-acetyl)3-(γ Glu)-CO-(CH2)10CH3)AQ-Aib-Orn-FI-(D-Glu)-αMeY-LIEGGPSSGAPPPSK((2-[2-(2-Amino-ethoxy)-ethoxy]-acetyl)3-(γ-Glu)-CO-(CH2)10-CH3)-NH2
B2: Example 439 (peptide)
peptide: B1 peptide with X21E, F22X
modifications: Y-Aib-EGT-αMeF(2F)-TSD-4Pal-Aib-I-αMeL-LD-Orn-K((2-[2-(2-Amino-ethoxy)-ethoxy]-acetyl)3-(Y-Glu)-CO-(CH2)10-CH3)AQ-Aib-E-αMeF-I-(D-Glu)-αMeY-LIEGGPSSGAPPPSK((2-[2-(2-Amino-ethoxy)-ethoxy]-acetyl)3-(γ-Glu)-CO-(CH2)10-CH3)-NH2
B3: Example 489 (peptide)
peptide: B1 peptide with K17Q, X21K
modifications: Y-Aib-EGT-αMeF(2F)-TSD-4Pal-Aib-I-αMeL-LD-Orn-QAQ-Aib-K((2-[2-(2-Amino-ethoxy)-ethoxy]-acetyl)2-(γ-Glu)-CO-(CH2)12-CO2H)FI-(D-Glu)-αMeY-LIEGGPSSGAPPPSK((2-[2-(2-Amino-ethoxy)-ethoxy]-acetyl)2-(γ-Glu)-CO-(CH2)12-CO2H)-NH2
B4: Example 434 (peptide)
peptide: YXEGTXTSDXXIXLDXKAQXXFIXXLIKGGPSSGAPPPS
modifications: Y-Aib-EGT-αMeF(2F)-TSD-4Pal-Aib-I-αMeL-LD-Orn-K((2-[2-(2-Amino-ethoxy)-ethoxy]-acetyl)3-(γ-Glu)-CO-(CH2)10-CH3)AQ-Aib-Orn-FI-(D-Glu)-αMeY-LIK((2-[2-(2-Amino-ethoxy)-ethoxy]-acetyl)3-(γ-Glu)-CO-(CH2)10-CH3)GGPSSGAPPPS-NH2
B5: Example 438 (peptide)
peptide: B4 peptide with X21E, F22X
modifications: Y-Aib-EGT-αMeF(2F)-TSD-4Pal-Aib-I-αMeL-LD-Orn-K((2-[2-(2-Amino-ethoxy)-ethoxy]-acetyl)3-(γ-Glu)-CO-(CH2)10-CH3)AQ-Aib-E-αMeF-I-(D-Glu)-αMeY-LIK((2-[2-(2-Amino-ethoxy)-ethoxy]-acetyl)3-(γ-Glu)-CO-(CH2)10-CH3)GGPSSGAPPPS-NH2
B6: Example 445 (peptide)
peptide: B4 peptide with X10K, X16G, X21E, K28E
modifications: Y-Aib-EGT-αMeF(2F)-TSDK((2-[2-(2-Amino-ethoxy)-ethoxy]-acetyl)2-(γ-Glu)-CO-(CH2)10-CH3)-Aib-I-αMeL-LDGK((2-[2-(2-Amino-ethoxy)-ethoxy]-acetyl)2-(γ-Glu)-CO-(CH2)10-CH3)AQ-Aib-EFI-(D-Glu)-αMeY-LIEGGPSSGAPPPS-NH2
B7: Example 436 (peptide)
peptide: B4 peptide with X10K, X21E, F22X, K28E
modifications: Y-Aib-EGT-αMeF(2F)-TSDK((2-[2-(2-Amino-ethoxy)-ethoxy]-acetyl)3-(γ-Glu)-CO-(CH2)10-CH3)-Aib-I-αMeL-LD-Orn-K((2-[2-(2-Amino-ethoxy)-ethoxy]-acetyl)3-(γ-Glu)-CO-(CH2)10-CH3)AQ-Aib-E-αMeF-I-(D-Glu)-αMeY-LIEGGPSSGAPPPS-NH2
B8: Example 437 (peptide)
peptide: B4 peptide with X21K, F22X, K28E
modifications: Y-Aib-EGT-αMeF(2F)-TSD-4Pal-Aib-I-αMeL-LD-Orn-K((2-[2-(2-Amino-ethoxy)-ethoxy]-acetyl)3-(γ-Glu)-CO-(CH2)10-CH3)AQ-Aib-K((2-[2-(2-Amino-ethoxy)-ethoxy]-acetyl)3-(γ-Glu)-CO-(CH2)10-CH3)-αMeF-I-(D-Glu)-αMeY-LIEGGPSSGAPPPS-NH2
B9: Example 488 (peptide)
peptide: B4 peptide with K17Q, X21K
modifications: Y-Aib-EGT-αMeF(2F)-TSD-4Pal-Aib-I-αMeL-LD-Orn-QAQ-Aib-K((2-[2-(2-Amino-ethoxy)-ethoxy]-acetyl)2-(γ-Glu)-CO-(CH2)12-CO2H)FI-(D-Glu)-αMeY-LIK((2-[2-(2-Amino-ethoxy)-ethoxy]-acetyl)2-(γ-Glu)-CO-(CH2)12-CO2H)GGPSSGAPPPS-NH2
B10: Example 205 (peptide)
peptide: B1 peptide with X11S, K17I, X21K
modifications: Aib2, αMeF(2F)6, 4Pal10, αMeL13, Orn16, Aib20, K21(Z), D-Glu24, αMeY25, K40(Z), C-terminal NH2; Z = AEEA2-(γ-Glu)-(4-(4-tert-butylphenyl)butanoyl)
B11: Example 209 (peptide)
peptide: B1 peptide with X11S, X21E
modifications: Aib2, αMeF(2F)6, 4Pal10, αMeL13, Orn16, K17(Z), Aib20, D-Glu24, αMeY25, K40(Z), C-terminal NH2; Z = AEEA-(γ-Glu)-(4-(4-tert-butylphenyl)butanoyl)
B12: Example 203 (peptide)
peptide: B4 peptide with X11S, K17I, X21E, X24K
modifications: Aib2, αMeF(2F)6, 4Pal10, αMeL13, Orn16, Aib20, K24(Z), αMeY25, K28(Z), C-terminal NH2; Z = AEEA2-(γ-Glu)-(4-(4-tert-butylphenyl)butanoyl)
B13: Example 207 (peptide)
peptide: B4 peptide with X11S, X21K, K28E
modifications: Aib2, αMeF(2F)6, 4Pal10, αMeL13, Orn16, K17(Z), Aib20, K21(Z), D-Glu24, αMeY25, C-terminal NH2; Z = AEEA-(γ-Glu)-(4-(4-tert-butylphenyl)butanoyl)
B14: Example 202 (peptide)
peptide: B4 peptide with X21E, K28E, P31K
modifications: Aib2, αMeF(2F)6, 4Pal10, Tle11, αMeL13, Orn16, K17(Z), Aib20, D-Glu24, αMeY25, K31(Z), C-terminal NH2; Z = AEEA2-(γ-Glu)-CO-(CH2)12-CO2H
B15: Example 204 (peptide)
peptide: B4 peptide with X11S, K17I, X21K
modifications: Aib2, αMeF(2F)6, 4Pal10, αMeL13, Orn16, Aib20, K21(Z), D-Glu24, αMeY25, K28(Z), C-terminal NH2; Z = AEEA2-(γ-Glu)-(4-(4-tert-butylphenyl)butanoyl)
B16: Example 210 (peptide)
peptide: B4 peptide with X11S, X21E
modifications: Aib2, αMeF(2F)6, 4Pal10, αMeL13, Orn16, K17(Z), Aib20, D-Glu24, αMeY25, K28(Z), C-terminal NH2; Z = AEEA2-CO-(CH2)12-CO2H

Biological target: hGLP-1R (Homo sapiens, UniProt P43220)
Test: cell-based or functional assay

Binder | cAMP EC50 | cAMP Emax
B1 | 0.0527 nM | 111%
B2 | 0.11 nM | 95.7%
B3 | 0.257 nM | 112%
B4 | 0.0837 nM | 104%
B5 | 0.471 nM | 88.5%
B6 | 0.0781 nM | 103%
B7 | 0.102 nM | 98.9%
B8 | 0.249 nM | 89.2%
B9 | 0.207 nM | 113%

Biological target: T1, human GIP receptor (human)
Test: cell-based or functional assay

Binder | cAMP EC50 | cAMP Emax
B1 | 0.00517 nM | 104%
B2 | 0.00799 nM | –
B3 | 0.0131 nM | 103%
B4 | 0.00704 nM | 98.3%
B5 | 0.0157 nM | 98.9%
B6 | 0.00728 nM | 102%
B7 | 0.00714 nM | 102%
B8 | 0.0146 nM | 94.8%
B9 | 0.0115 nM | 104%

Biological target: human glucagon receptor (human) (UniProt P47871)
Test: cell-based or functional assay

Binder | cAMP EC50
B1 | > 9950 nM
B2 | > 9950 nM
B3 | > 10100 nM
B4 | > 9950 nM
B5 | > 9950 nM
B6 | > 9950 nM
B7 | > 9950 nM
B8 | > 9950 nM
B9 | > 10100 nM

Biological target: T2, human glucose-dependent insulinotropic …
Test: cell-based or functional assay

Binder | cAMP EC50 | cAMP Emax
B10 | 0.0264 nM | –
B11 | 0.0133 nM | –
B12 | 0.0721 nM | –
B13 | 0.019 nM | –
B14 | 0.057 nM | 86%
B15 | 0.0304 nM | –
B16 | 0.02 nM | –

Biological target: human glucagon-like peptide-1 (GLP-1) receptor (human, UniProt P43220 24-463)
Test: cell-based or functional assay

Binder | cAMP EC50 | cAMP Emax
B10 | 0.287 nM | –
B11 | 0.235 nM | –
B12 | 0.535 nM | –
B13 | 0.209 nM | –
B14 | 0.944 nM | 92.2%
B15 | 0.47 nM | 126%
B16 | 0.57 nM | –

Biological target: human glucagon receptor (human, UniProt P47871 26-477)
Test: cell-based or functional assay

Binder | cAMP EC50
B10 | > 9950 nM
B11 | > 9950 nM
B12 | > 9950 nM
B13 | > 9950 nM
B14 | > 9950 nM
B15 | > 9950 nM
B16 | > 9950 nM

Biological target: T3, human GIP receptor
Test: cell-based or functional assay

Binder | cAMP EC50 (1.0% HSA) | cAMP Emax (1.0% HSA)
B1 | 0.0873 nM | 98.7%
B2 | 0.396 nM | 91.7%
B3 | 0.578 nM | 79.4%
B4 | 0.0994 nM | 97.5%
B5 | 0.592 nM | 90.8%
B6 | 1.17 nM | 91.4%
B7 | 0.241 nM | 96%
B8 | 0.461 nM | 96.5%
B9 | 0.718 nM | 85.5%

Biological target: human GLP-1 receptor (human, UniProt P43220 24-463)
Test: cell-based or functional assay

Binder | cAMP EC50 (1.0% HSA) | cAMP Emax (1.0% HSA)
B1 | 1.63 nM | 97.8%
B2 | 9.25 nM | 97%
B3 | 13.5 nM | 98.7%
B4 | 1.73 nM | –
B5 | 28 nM | 88.7%
B6 | 13.1 nM | 100%
B7 | 4.98 nM | –
B8 | 9.65 nM | 91.2%
B9 | 13 nM | –

Biological target: human glucagon receptor (human, UniProt P47871 26-477)
Test: cell-based or functional assay
Remark: another data set of the same source
Target sequence in this assay (P47871 26-477): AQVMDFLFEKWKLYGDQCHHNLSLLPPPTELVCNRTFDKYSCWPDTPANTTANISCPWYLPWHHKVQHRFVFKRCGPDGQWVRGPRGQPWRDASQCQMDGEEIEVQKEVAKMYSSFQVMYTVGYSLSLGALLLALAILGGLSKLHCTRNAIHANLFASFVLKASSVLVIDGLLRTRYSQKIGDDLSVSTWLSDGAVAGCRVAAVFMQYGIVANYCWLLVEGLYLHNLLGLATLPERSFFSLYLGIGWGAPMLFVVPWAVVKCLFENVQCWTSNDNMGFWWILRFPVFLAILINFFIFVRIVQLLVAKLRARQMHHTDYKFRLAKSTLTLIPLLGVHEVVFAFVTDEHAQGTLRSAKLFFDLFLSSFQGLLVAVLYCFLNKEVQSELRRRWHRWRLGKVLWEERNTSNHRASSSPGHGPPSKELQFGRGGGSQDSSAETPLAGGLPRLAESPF

Binder | cAMP EC50 (1.0% HSA)
B1 | > 9950 nM
B2 | > 9950 nM
B3 | > 9950 nM
B4 | > 9950 nM
B5 | > 9950 nM
B6 | > 9950 nM
B7 | > 9950 nM
B8 | > 9950 nM
B9 | > 9950 nM
